According to PMC11041675:

Experiments:
Test in all cases: EMSA
nsp7;nsp8 = nsp7;nsp8 (SARS-CoV-2;SARS-CoV-2, UniProt P0DTD1;P0DTD1 3860-3942;3943-4140, |)
nsp7 = nsp7 (SARS-CoV-2, UniProt P0DTD1 3860-3942)
nsp8 = nsp8 (SARS-CoV-2, UniProt P0DTD1 3943-4140)

Binder | Kd (nsp7;nsp8) [µM] | binding result (nsp7) | binding result (nsp8)
PKP4 (structured_RNA) RNA: GGGCUUGUGCAGAAUGAAUUCUCGUAACUACAUAGCACAAGUAGAUGUAGUUAACUUUAAUCUCACAGCAAUGUGAUUUUAAUAGCUUCUUAGGAGAAU | 2.6 | no binding | binds
SLP4 (structured_RNA) RNA: GGGAUUCUCGUAACUACAUAGCACAAGUAGAUGUAGUUAACUUUAAUCUCACAGCAAUGUGAUUUUAAUAGCUUCUUAGGAGAAU | 2.4 | no binding | binds
PK (structured_RNA) RNA: GGGUCUUGUGCAGAAUGAAUUCUCGUAACUACAUAGCACAAGUAGAUGUAGUUA | 5.3 | no binding | binds
GGAUUCUCGUAACUACAUAGCACAAGUAGAUGUAGUUACUUAGGAGAAU (structured_RNA) [SL] | 5.7 | no binding | binds
rd85 (structured_RNA) RNA: GGGAAUAUACUAAUAUUGGUUGAGUUGUCCAAGCUCUAAUUGUGUCCUUUAGCUGUACGGAUUAUAAAAGUAAUAGGGAUGUGUU | 3.7 | – | –
